Experimental findings from publication doi:10.1101/2020.12.09.417477 (bioRxiv, 2020) are described below.

Targets include His-Prs-K182A (E. coli, UniProt P0A717 1-315, K182A); His-PrsK194A (E. coli, UniProt P0A717 1-315, K194A); His-Prs-K231A (E. coli, UniProt P0A717 1-315, K231A); His6-Prs (E. coli, UniProt P0A717 1-315).
Experiment in all cases: pull-down

B1: CobB (enzyme, E. coli, UniProt P75960 1-279, looked up)
chain: MLSRRGHRLSRFRKNKRRLRERLRQRIFFRDKVVPEAMEKPRVLVLTGAGISAESGIRTFRAADGLWEEHRVEDVATPEGFDRDPELVQAFYNARRRQLQQPEIQPNAAHLALAKLQDALGDRFLLVTQNIDNLHERAGNTNVIHMHGELLKVRCSQSGQVLDWTGDVTPEDKCHCCQFPAPLRPHVVWFGEMPLGMDEIYMALSMADIFIAIGTSGHVYPAAGFVHEAKLHGAHTVELNLEPSQVGNEFAEKYYGPASQVVPEFVEKLLKGLKAGSIA
Take B1: the binding result with His-Prs-K182A, in the experiment with His-PrsK194A, with His-Prs-K231A and with His6-Prs was “binds” in each case.

B2: acetylated CobB (enzyme, E. coli, UniProt P75960 1-279, looked up)
chain: MLSRRGHRLSRFRKNKRRLRERLRQRIFFRDKVVPEAMEKPRVLVLTGAGISAESGIRTFRAADGLWEEHRVEDVATPEGFDRDPELVQAFYNARRRQLQQPEIQPNAAHLALAKLQDALGDRFLLVTQNIDNLHERAGNTNVIHMHGELLKVRCSQSGQVLDWTGDVTPEDKCHCCQFPAPLRPHVVWFGEMPLGMDEIYMALSMADIFIAIGTSGHVYPAAGFVHEAKLHGAHTVELNLEPSQVGNEFAEKYYGPASQVVPEFVEKLLKGLKAGSIA
modifications: acetyl-lysines (acetylated in vitro with acetyl phosphate); positions are in Supplementary Table 2
Consider B2, for which, in the experiment with His6-Prs, the binding result is “binds”.
